Substitutions are numbered along the chain they refer to.
How the values were obtained:
Experiment in all cases: ELONA; RPB-ELISA
v3.1_PPR12 = target: T1, v3.1_PPR12 (Artificial Sequence); settings: tags: luciferase fusion; label: 5'-biotin
T1 chain: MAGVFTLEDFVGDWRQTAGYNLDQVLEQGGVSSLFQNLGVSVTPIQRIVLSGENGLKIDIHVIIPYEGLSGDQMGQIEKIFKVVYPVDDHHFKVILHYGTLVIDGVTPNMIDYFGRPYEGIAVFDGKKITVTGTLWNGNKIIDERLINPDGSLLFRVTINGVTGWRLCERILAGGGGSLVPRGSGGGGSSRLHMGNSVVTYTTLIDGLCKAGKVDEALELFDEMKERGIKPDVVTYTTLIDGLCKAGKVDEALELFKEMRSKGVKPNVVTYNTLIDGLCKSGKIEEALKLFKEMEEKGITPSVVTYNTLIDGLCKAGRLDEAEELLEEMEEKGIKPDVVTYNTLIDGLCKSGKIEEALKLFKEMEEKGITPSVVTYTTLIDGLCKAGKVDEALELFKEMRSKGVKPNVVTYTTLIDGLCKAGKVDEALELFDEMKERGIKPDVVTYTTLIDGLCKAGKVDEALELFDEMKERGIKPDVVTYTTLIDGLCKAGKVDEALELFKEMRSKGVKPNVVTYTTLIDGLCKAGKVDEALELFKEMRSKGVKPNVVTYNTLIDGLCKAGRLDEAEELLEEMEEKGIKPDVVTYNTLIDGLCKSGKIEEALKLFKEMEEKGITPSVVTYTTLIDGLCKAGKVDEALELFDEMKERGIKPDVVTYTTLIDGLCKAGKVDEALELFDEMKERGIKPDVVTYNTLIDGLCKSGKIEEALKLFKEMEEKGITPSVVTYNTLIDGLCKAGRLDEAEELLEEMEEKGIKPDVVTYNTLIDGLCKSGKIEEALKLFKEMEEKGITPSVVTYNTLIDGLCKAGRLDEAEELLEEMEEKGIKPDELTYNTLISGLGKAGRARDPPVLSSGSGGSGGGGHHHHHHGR

NL_v2_PPR12 = target: T2, NL_v2_PPR12 (Artificial Sequence); settings: tags: N-term luciferase, C-term 6xHis; label: 5'-biotin
T2 chain: T1 chain with K248D, K388D, K493D, K528D

v3.1_PPR11 = target: T3, v3.1_PPR11 (Artificial Sequence); settings: tags: luciferase fusion; label: 5'-biotin
T3 chain: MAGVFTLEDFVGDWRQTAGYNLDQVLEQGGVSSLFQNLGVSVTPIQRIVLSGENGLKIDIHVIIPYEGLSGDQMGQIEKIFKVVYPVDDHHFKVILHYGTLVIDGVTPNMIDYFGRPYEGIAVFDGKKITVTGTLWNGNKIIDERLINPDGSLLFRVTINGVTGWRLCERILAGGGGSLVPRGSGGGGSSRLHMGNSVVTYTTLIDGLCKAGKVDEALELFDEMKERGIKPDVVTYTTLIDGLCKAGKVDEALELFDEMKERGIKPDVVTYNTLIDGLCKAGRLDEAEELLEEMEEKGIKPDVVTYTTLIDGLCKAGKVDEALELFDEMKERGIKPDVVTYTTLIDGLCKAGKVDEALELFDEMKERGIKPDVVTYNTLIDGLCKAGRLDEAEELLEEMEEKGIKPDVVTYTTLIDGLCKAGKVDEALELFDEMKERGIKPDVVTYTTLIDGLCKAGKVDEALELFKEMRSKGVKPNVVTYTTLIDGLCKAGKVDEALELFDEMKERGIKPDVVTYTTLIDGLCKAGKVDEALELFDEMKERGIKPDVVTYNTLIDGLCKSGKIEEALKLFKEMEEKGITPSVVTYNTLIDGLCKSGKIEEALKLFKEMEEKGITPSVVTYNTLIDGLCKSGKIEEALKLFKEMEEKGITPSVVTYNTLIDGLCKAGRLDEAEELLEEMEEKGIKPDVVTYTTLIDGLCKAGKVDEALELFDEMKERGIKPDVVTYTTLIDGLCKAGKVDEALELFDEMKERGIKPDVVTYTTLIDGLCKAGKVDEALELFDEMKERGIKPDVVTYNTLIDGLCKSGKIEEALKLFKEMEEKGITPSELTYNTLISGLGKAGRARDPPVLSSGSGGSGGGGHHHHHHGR

NL_v2_PPR11 = target: T4, NL_v2_PPR11 (Artificial Sequence); settings: tags: N-term luciferase, C-term 6xHis; label: 5'-biotin
T4 chain: T3 chain with K458D

NL_v2_PPR10 = target: T5, NL_v2_PPR10 (Artificial Sequence); settings: tags: N-term luciferase, C-term 6xHis; label: 5'-biotin
T5 chain: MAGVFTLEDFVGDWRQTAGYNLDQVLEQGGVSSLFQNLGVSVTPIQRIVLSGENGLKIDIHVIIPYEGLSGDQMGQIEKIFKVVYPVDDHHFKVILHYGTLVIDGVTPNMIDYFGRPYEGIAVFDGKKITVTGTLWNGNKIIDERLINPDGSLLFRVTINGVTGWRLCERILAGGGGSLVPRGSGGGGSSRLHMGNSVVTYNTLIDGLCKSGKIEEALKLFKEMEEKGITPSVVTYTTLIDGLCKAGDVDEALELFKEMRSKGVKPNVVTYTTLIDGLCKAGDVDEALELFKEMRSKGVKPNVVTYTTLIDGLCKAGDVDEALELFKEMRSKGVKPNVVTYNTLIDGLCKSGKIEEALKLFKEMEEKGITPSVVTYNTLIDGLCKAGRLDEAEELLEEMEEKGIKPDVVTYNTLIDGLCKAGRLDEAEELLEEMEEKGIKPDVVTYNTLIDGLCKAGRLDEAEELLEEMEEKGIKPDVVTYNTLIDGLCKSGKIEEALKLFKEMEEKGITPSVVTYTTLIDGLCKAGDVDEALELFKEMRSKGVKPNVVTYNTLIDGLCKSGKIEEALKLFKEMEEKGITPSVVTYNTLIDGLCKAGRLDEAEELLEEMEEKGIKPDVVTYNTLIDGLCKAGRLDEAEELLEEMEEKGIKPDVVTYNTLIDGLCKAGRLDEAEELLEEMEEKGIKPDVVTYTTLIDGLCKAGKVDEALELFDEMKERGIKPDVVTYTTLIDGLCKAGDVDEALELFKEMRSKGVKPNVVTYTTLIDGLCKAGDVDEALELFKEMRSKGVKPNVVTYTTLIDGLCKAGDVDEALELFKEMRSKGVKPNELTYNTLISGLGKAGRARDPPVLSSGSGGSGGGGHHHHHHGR

v3.1_PPR10 = target: T6, v3.1_PPR10 (Artificial Sequence); settings: tags: luciferase fusion; label: 5'-biotin
T6 chain: T5 chain with D248K, D283K, D318K, D528K, D738K, D773K, D808K

GACAUGCGACUCAGGAAUCGGCUCUGACUG (ssRNA) [RNA_12]
binding signal (v3.1_PPR12): 1.8e+07 luminescence | binding signal (NL_v2_PPR12): 3.8e+07 luminescence

GACAUGCGGUGGUGAGGCCCUGGGCGACUG (ssRNA) [RNA_11]
binding signal (v3.1_PPR11): 2.6e+07 luminescence | binding signal (NL_v2_PPR11): 1.2e+07 luminescence

GACAUGCCAAACUUUCACUUUGAAAGACUG (ssRNA) [RNA_10]
binding signal (NL_v2_PPR10): 7.8e+06 luminescence | binding signal (v3.1_PPR10): 5.8e+07 luminescence

Reference: US20220289795, “EFFICIENT METHOD FOR PREPARING PPR PROTEIN AND USE OF THE SAME” (EditForce, Inc., published 2022)
